Data set [1] deals with human CD133 (prominin-1) (human) (UniProt O43490). In words: flow cytometry on RPMI 2650 cells, directly PE-conjugated antibody. Background: A flow cytometer gives signals particle by particle.
For data set [2], the target named is T1, CdtA-CdtC heterodimer (wild-type CdtA-His6 and CdtC-His6).
T1 chain 1: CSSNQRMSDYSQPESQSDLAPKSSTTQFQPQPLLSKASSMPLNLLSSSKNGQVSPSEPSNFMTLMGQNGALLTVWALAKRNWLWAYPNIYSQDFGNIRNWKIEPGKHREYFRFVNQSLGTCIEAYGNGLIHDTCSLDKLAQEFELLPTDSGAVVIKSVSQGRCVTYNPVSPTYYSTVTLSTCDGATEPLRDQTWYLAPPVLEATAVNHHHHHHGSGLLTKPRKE
T1 chain 2: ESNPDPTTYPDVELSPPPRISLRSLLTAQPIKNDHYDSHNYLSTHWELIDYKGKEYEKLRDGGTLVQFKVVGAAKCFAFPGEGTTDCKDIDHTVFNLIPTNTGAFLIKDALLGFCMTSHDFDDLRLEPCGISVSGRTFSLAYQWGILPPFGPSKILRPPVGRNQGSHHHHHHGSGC

As to “mouse anti-human CD133/1 MAb conjugated to PE (Miltenyi Biotec) (antibody)”, in data set [1], the median fluorescence (MF) came out at 64.8.

B1: CdtB/DNase I hybrid protein (from pETBDN2) (protein)
chain: NLSDFKVATWNLQGSSAVNESKWNINVRQLLSGEQGADILMVQEAGSLPSSAVRTSRVIQHGGTPIEEYTWNLGTRSRPNMVYIYYSRLDVGANRVNLAIVSRRQADEAFIVHSDSSVLQSRPAVGIRIGTDVFFTVHAAPGDAVAEIDALYDVYLDVQEKWGLEDVMLMGDFNAGCSYVRPSQWSSIRLWTSPTFQWLIPDSADTTATPTHCAYDRIVVAGMLLRGAVVPDSALPFNFQAANGLSDQLAQAISDHYPVEVMLKHHHHHHHMLEDPAANKAQKK
Take B1: the “DNA nicking activity of reconstituted heterotrimer preparations” value in data set [2] is “reconstituted heterotrimer preparations containing the CdtB/DNase I hybrid protein failed to convert supercoiled DNA to linear and relaxed forms”.

These data come from US20120027785A1.
